In patent publication US20220251595A1, “ENGINEERED ATRLP23 PATTERN RECOGNITION RECEPTORS AND METHODS OF USE” (priority 2019, published 2022):

B1: AtRLP23-OsXA21-3×FLAG: AtRLP23 apoplastic and eJM domains, OsXA21 TM and cytoplasmic domains, 3×FLAG; SEQ ID NO: 21, 22 (protein)
chain: MSKALLHLHFLSLFLLCCVCHSSIFTLNFHFTGIVACRPHQIQAFTKFTNEFDTRGCNNSDTFNGVWCDNSTGAVAVLQLRKCLSGTLKSNSSLFGFHQLRYVDLQNNNLTSSSLPSGFGNLKRLEGLFLSSNGFLGQVPSSFSNLTMLAQLDLSYNKLTGSFPLVRGLRKLIVLDLSYNHFSGTLNPNSSLFELHQLRYLNLAFNNFSSSLPSKFGNLHRLENLILSSNGFSGQVPSTISNLTRLTKLYLDQNKLTSSFPLVQNLTNLYELDLSYNKFFGVIPSSLLTLPFLAHLALRENNLAGSVEVSNSSTSSRLEIMYLGSNHFEGQILEPISKLINLKHLDLSFLNTSYPIDLKLFSSLKSLRSLDLSGNSISSASLSSDSYIPLTLEMLTLRHCDINEFPNILKTLKELVYIDISNNRMKGKIPEWLWSLPLLQSVTLGNNYFTGFQGSAEILVNSSVLLLYLDSNNFEGALPDLPLSIKGFGVASNSFTSEIPLSICNRSSLAAIDLSYNNFTGPIPPCLRNLELVYLRNNNLEGSIPDALCDGASLRTLDVSHNRLTGKLPRSFVNCSSLKFLSVINNRIEDTFPFWLKALPNLQVLTLRSNRFYGPISPPHQGPLGFPELRIFEISDNKFTGSLPPNYFVNWKASSRTMNQDGGLYMVYEEKLFDEGGYGYTDALDLQYKGLHMEQAKALTSYAAIDFSGNRLEGQIPESIGLLKALIAVNISNNAFTGHIPLSMANLENLESLDMSRNQLSGTIPNGLGSISFLAYINVSHNQLTGEIPQGTQITGQSKSSFEGNAGLCGLPLKESCFGTGAPPMYHQKQEDKEEEEEEEEEEEEVLNGRFPVLPISVSLAAALAILSSLYLLITWHKRTKKGAPSRTSMKGHPLVSYSQLVKATDGFAPTNLLGSGSFGSVYKGKLNIQDHVAVKVLKLENPKALKSFTAECEALRNMRHRNLVKIVTICSSIDNRGNDFKAIVYDFMPNGSLEDWIHPETNDQADQRHLNLHRRVTILLDVACALDYLHRHGPEPVVHCDIKSSNVLLDSDMVAHVGDFGLARILVDGTSLIQQSTSSMGFIGTIGYAAPEYGVGLIASTHGDIYSYGILVLEIVTGKRPTDSTFRPDLGLRQYVELGLHGRVTDVVDTKLILDSENWLNSTNNSPCRRITECIVWLLRLGLSCSQELPSSRTPTGDIIDELNAIKQNLSGLFPVCEGGSLEFSDYKDHDGDYKDHDLDAAAADYKDDDDK
modifications: Fusion protein
B2: AtRLP23-AtEFR-3×FLAG: AtRLP23 apoplastic and eJM domains, AtEFR TM and cytoplasmic domains, 3×FLAG; SEQ ID NO: 17, 18 (protein)
chain: MSKALLHLHFLSLFLLCCVCHSSIFTLNFHFTGIVACRPHQIQAFTKFTNEFDTRGCNNSDTFNGVWCDNSTGAVAVLQLRKCLSGTLKSNSSLFGFHQLRYVDLQNNNLTSSSLPSGFGNLKRLEGLFLSSNGFLGQVPSSFSNLTMLAQLDLSYNKLTGSFPLVRGLRKLIVLDLSYNHFSGTLNPNSSLFELHQLRYLNLAFNNFSSSLPSKFGNLHRLENLILSSNGFSGQVPSTISNLTRLTKLYLDQNKLTSSFPLVQNLTNLYELDLSYNKFFGVIPSSLLTLPFLAHLALRENNLAGSVEVSNSSTSSRLEIMYLGSNHFEGQILEPISKLINLKHLDLSFLNTSYPIDLKLFSSLKSLRSLDLSGNSISSASLSSDSYIPLTLEMLTLRHCDINEFPNILKTLKELVYIDISNNRMKGKIPEWLWSLPLLQSVTLGNNYFTGFQGSAEILVNSSVLLLYLDSNNFEGALPDLPLSIKGFGVASNSFTSEIPLSICNRSSLAAIDLSYNNFTGPIPPCLRNLELVYLRNNNLEGSIPDALCDGASLRTLDVSHNRLTGKLPRSFVNCSSLKFLSVINNRIEDTFPFWLKALPNLQVLTLRSNRFYGPISPPHQGPLGFPELRIFEISDNKFTGSLPPNYFVNWKASSRTMNQDGGLYMVYEEKLFDEGGYGYTDALDLQYKGLHMEQAKALTSYAAIDFSGNRLEGQIPESIGLLKALIAVNISNNAFTGHIPLSMANLENLESLDMSRNQLSGTIPNGLGSISFLAYINVSHNQLTGEIPQGTQITGQSKSSFEGNAGLCGLPLKESCFGTGAPPMYHQKQEDKEEEEEEEEEEEEVLNGRVVSGICIGIASLLLIIIVASLCWFMKRKKKNNASDGNPSDSTTLGMFHEKVSYEELHSATSRFSSTNLIGSGNFGNVFKGLLGPENKLVAVKVLNLLKHGATKSFMAECETFKGIRHRNLVKLITVCSSLDSEGNDFRALVYEFMPKGSLDMWLQLEDLERVNDHSRSLTPAEKLNIAIDVASALEYLHVHCHDPVAHCDIKPSNILLDDDLTAHVSDFGLAQLLYKYDRESFLNQFSSAGVRGTIGYAAPEYGMGGQPSIQGDVYSFGILLLEMFSGKKPTDESFAGDYNLHSYTKSILSGCTSSGGSNAIDEGLRLVLQVGIKCSEEYPRDRMRTDEAVRELISIRSKFFSSKTTITESPRDAPQSSPQEWMLNTDMHTMASDYKDHDGDYKDHDLDAAAADYKDDDDK
modifications: Fusion protein
B3: AtRLP23+TM-AtSOBIR1-3×FLAG: AtRLP23 apoplastic, eJM and TM domains, AtSOBIR1 cytoplasmic domain, 3×FLAG; SEQ ID NO: 41, 42 (protein)
chain: MSKALLHLHFLSLFLLCCVCHSSIFTLNFHFTGIVACRPHQIQAFTKFTNEFDTRGCNNSDTFNGVWCDNSTGAVAVLQLRKCLSGTLKSNSSLFGFHQLRYVDLQNNNLTSSSLPSGFGNLKRLEGLFLSSNGFLGQVPSSFSNLTMLAQLDLSYNKLTGSFPLVRGLRKLIVLDLSYNHFSGTLNPNSSLFELHQLRYLNLAFNNFSSSLPSKFGNLHRLENLILSSNGFSGQVPSTISNLTRLTKLYLDQNKLTSSFPLVQNLTNLYELDLSYNKFFGVIPSSLLTLPFLAHLALRENNLAGSVEVSNSSTSSRLEIMYLGSNHFEGQILEPISKLINLKHLDLSFLNTSYPIDLKLFSSLKSLRSLDLSGNSISSASLSSDSYIPLTLEMLTLRHCDINEFPNILKTLKELVYIDISNNRMKGKIPEWLWSLPLLQSVTLGNNYFTGFQGSAEILVNSSVLLLYLDSNNFEGALPDLPLSIKGFGVASNSFTSEIPLSICNRSSLAAIDLSYNNFTGPIPPCLRNLELVYLRNNNLEGSIPDALCDGASLRTLDVSHNRLTGKLPRSFVNCSSLKFLSVINNRIEDTFPFWLKALPNLQVLTLRSNRFYGPISPPHQGPLGFPELRIFEISDNKFTGSLPPNYFVNWKASSRTMNQDGGLYMVYEEKLFDEGGYGYTDALDLQYKGLHMEQAKALTSYAAIDFSGNRLEGQIPESIGLLKALIAVNISNNAFTGHIPLSMANLENLESLDMSRNQLSGTIPNGLGSISFLAYINVSHNQLTGEIPQGTQITGQSKSSFEGNAGLCGLPLKESCFGTGAPPMYHQKQEDKEEEEEEEEEEEEVLNGRAVAIGYGSGLLLGLAIAQVIASYKLIIQAIRGSEKPPGPSIFSPLIKKAEDLAFLENEEALASLEIIGRGGCGEVFKAELPGSNGKIIAVKKVIQPPKDADELTDEDSKFLNKKMRQIRSEINTVGHIRHRNLLPLLAHVSRPECHYLVYEYMEKGSLQDILTDVQAGNQELMWPARHKIALGIAAGLEYLHMDHNPRIIHRDLKPANVLLDDDMEARISDFGLAKAMPDAVTHITTSHVAGTVGYIAPEFYQTHKFTDKCDIYSFGVILGILVIGKLPSDEFFQHTDEMSLIKWMRNIITSENPSLAIDPKLMDQGFDEQMLLVLKIACYCTLDDPKQRPNSKDVRTMLSQIKHSDYKDHDGDYKDHDLDAAAADYKDDDDK
modifications: Fusion protein
B4: AtRLP23-AtPEPR1-3×FLAG: AtRLP23 apoplastic and eJM domains, AtPEPR1 TM and kinase domains, 3×FLAG; SEQ ID NO: 572, 573 (protein)
chain: MSKALLHLHFLSLFLLCCVCHSSIFTLNFHFTGIVACRPHQIQAFTKFTNEFDTRGCNNSDTFNGVWCDNSTGAVAVLQLRKCLSGTLKSNSSLFGFHQLRYVDLQNNNLTSSSLPSGFGNLKRLEGLFLSSNGFLGQVPSSFSNLTMLAQLDLSYNKLTGSFPLVRGLRKLIVLDLSYNHFSGTLNPNSSLFELHQLRYLNLAFNNFSSSLPSKFGNLHRLENLILSSNGFSGQVPSTISNLTRLTKLYLDQNKLTSSFPLVQNLTNLYELDLSYNKFFGVIPSSLLTLPFLAHLALRENNLAGSVEVSNSSTSSRLEIMYLGSNHFEGQILEPISKLINLKHLDLSFLNTSYPIDLKLFSSLKSLRSLDLSGNSISSASLSSDSYIPLTLEMLTLRHCDINEFPNILKTLKELVYIDISNNRMKGKIPEWLWSLPLLQSVTLGNNYFTGFQGSAEILVNSSVLLLYLDSNNFEGALPDLPLSIKGFGVASNSFTSEIPLSICNRSSLAAIDLSYNNFTGPIPPCLRNLELVYLRNNNLEGSIPDALCDGASLRTLDVSHNRLTGKLPRSFVNCSSLKFLSVINNRIEDTFPFWLKALPNLQVLTLRSNRFYGPISPPHQGPLGFPELRIFEISDNKFTGSLPPNYFVNWKASSRTMNQDGGLYMVYEEKLFDEGGYGYTDALDLQYKGLHMEQAKALTSYAAIDFSGNRLEGQIPESIGLLKALIAVNISNNAFTGHIPLSMANLENLESLDMSRNQLSGTIPNGLGSISFLAYINVSHNQLTGEIPQGTQITGQSKSSFEGNAGLCGLPLKESCFGTGAPPMYHQKQEDKEEEEEEEEEEEEVLNGRIVLIAVLSSLLVLVVVLALVFICLRRRKGRPEKDAYVFTQEEGPSLLLNKVLAATDNLNEKYTIGRGAHGIVYRASLGSGKVYAVKRLVFASHIRANQSMMREIDTIGKVRHRNLIKLEGFWLRKDDGLMLYRYMPKGSLYDVLHGVSPKENVLDWSARYNVALGVAHGLAYLHYDCHPPIVHRDIKPENILMDSDLEPHIGDFGLARLLDDSTVSTATVTGTTGYIAPENAFKTVRGRESDVYSYGVVLLELVTRKRAVDKSFPESTDIVSWVRSALSSSNNNVEDMVTTIVDPILVDELLDSSLREQVMQVTELALSCTQQDPAMRPTMRDAVKLLEDVKHLARSCSSDSVRSDYKDHDGDYKDHDLDAAAADYKDDDDK
modifications: Fusion protein

Columns and labels:
corn protoplasts [1] = assay: Calcium burst in transiently transfected corn protoplasts, R-GECO1.2 fluorescence reporter; assay type: cell-based, Zea mays; conditions: Example 3, FIG. 4; 1 μM PpNLP20; 40 minutes; 384-well
Text: Following ligand (also known as elicitor) binding, PRRs are activated and induce a transient increase of cytosolic Ca^2+ concentration as part of a PTI response. […] In a high-throughput method, the kinetics of PRR-dependent transient variation of cytosolic Ca^2+ concentration can be measured with a fluorimeter or luminometer and in microplate formats of 96 or 384 wells.
Fluorescence was monitored using a fluorimeter equipped with a 100 Hz xenon flash lamp with excitation at 556 nm and emission measured at 585 nm for 100 ms, every 22.6 seconds for 42 minutes.
All of the AtRLP23 constructs have an operably linked 2×35S+Ω promoter construct (SEQ ID NO: 72) and an operably linked rbcS terminator (SEQ ID NO: 73)
Fluorescence was monitored using a fluorimeter equipped with a 100 Hz xenon flash lamp with excitation at 556 nm and emission measured at 585 nm for 30 ms, every 20.2 seconds for 40 minutes. For each fluorescence measurement, the transient change in R-GECO1.2 fluorescence (ΔF) are calculated from background corrected intensity values as (F-Fo), where F represents the average fluorescence intensity of the a batch of protoplasts treated with elicitor, and Fo represents the average fluorescence intensity of the same batch of protoplasts treated with a control solution that lacks the elicitor but is otherwise identical or essentially identical in composition to the solution comprising the elicitor.

corn protoplasts [2] = assay: Calcium burst in transiently transfected corn protoplasts, apoaequorin luminescence reporter

Molecule | responsiveness to PpNLP20 treatment compared to AtRLP23-3×FLAG (total transient increase of fluorescence) (corn protoplasts [1]) | Ca^2+ burst in response to all tested NLP peptides (corn protoplasts [2]; Example 6, FIG. 8, CgNLP24b, FgNLP24c, FvNLP24a, SmNLP24) | increase in Ca^2+ compared to control buffer treatment (corn protoplasts [2]; FIG. 8, all peptides tested)
B1 | increased responsiveness | – | –
B2 | increased responsiveness | – | –
B3 | increased responsiveness | – | –
B4 | – | Ca^2+ burst | statistically significant
